± gives the uncertainty stated by the source.

B1: library; numbered along this chain (parent)
chain: MEVVDPQQLGMFTEGELMSVGMDTFIHRIDSTEVIYQPRRKRAKLIGKYLMGDLLGEGSYGKVKEVLDSETLCRRAVKILKKKKLRRIPNGEANVKKEIQLLRRLRHKNVIQLVDVLYNEEKQKMYMVMEYCVCGMQEMLDSVPEKRFPVCQAHGYFCQLIDGLEYLHSQGIVHKDIKPGNLLLTTGGTLKISDLGVAEALHPFAADDTCRTSQGSPAFQPPEIANGLDTFSGFKVDIWSAGVTLYNITTGLYPFEGDNIYKLFENIGKGSYAIPGDCGPPLSDLLKGMLEYEPAKRFSIRQIRQHSWFRKKHPPAEAPVPIPPSPDTKDRWRSMTVVPYLEDLHGADEDEDLFDIEDDIIYTQDFTVPGQVPEEEASHNGQRRGLPKAVCMNGTEAAQLSTKSRAEGRAPNPARKACSASSKIRRLSACKQQ

In this series the parent is B1. In words: STK11 functional score (HeLa growth suppression), rescaled enrichment; synonymous median = 1, nonsense median = 0 (normalised score). The conditions noted are these: with HeLa; variant type: missense. How it is done: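 Deep mutational scan (TileSeq/POPCode codon randomisation) of full-length codon-optimised STK11 cDNA integrated at a Bxb1 landing pad (AAVS1) in HeLa cells. Restoring functional STK11 suppresses HeLa proliferation. Variant frequencies were measured by NGS before and after about two weeks of growth. The error-corrected enrichment log-ratio was rescaled so that synonymous median = 1 and nonsense median = 0, scores above 1 were compressed, and codon-level and three biological replicate scores were combined; error is the bootstrapped standard error. Scale: synonymous median = 1, nonsense median = 0; below 0.5 = damaging.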
For the variant MEVDDPQQLGMFTEGELMSVGMDTFIHRIDSTEVIYQPRRKRAKLIGKYLMGDLLGEGSYGKVKEVLDSETLCRRAVKILKKKKLRRIPNGEANVKKEIQLLRRLRHKNVIQLVDVLYNEEKQKMYMVMEYCVCGMQEMLDSVPEKRFPVCQAHGYFCQLIDGLEYLHSQGIVHKDIKPGNLLLTTGGTLKISDLGVAEALHPFAADDTCRTSQGSPAFQPPEIANGLDTFSGFKVDIWSAGVTLYNITTGLYPFEGDNIYKLFENIGKGSYAIPGDCGPPLSDLLKGMLEYEPAKRFSIRQIRQHSWFRKKHPPAEAPVPIPPSPDTKDRWRSMTVVPYLEDLHGADEDEDLFDIEDDIIYTQDFTVPGQVPEEEASHNGQRRGLPKAVCMNGTEAAQLSTKSRAEGRAPNPARKACSASSKIRRLSACKQQ [V4D], the STK11 functional score stood at 1.45 ± 0.39.
As to MEPVDPQQLGMFTEGELMSVGMDTFIHRIDSTEVIYQPRRKRAKLIGKYLMGDLLGEGSYGKVKEVLDSETLCRRAVKILKKKKLRRIPNGEANVKKEIQLLRRLRHKNVIQLVDVLYNEEKQKMYMVMEYCVCGMQEMLDSVPEKRFPVCQAHGYFCQLIDGLEYLHSQGIVHKDIKPGNLLLTTGGTLKISDLGVAEALHPFAADDTCRTSQGSPAFQPPEIANGLDTFSGFKVDIWSAGVTLYNITTGLYPFEGDNIYKLFENIGKGSYAIPGDCGPPLSDLLKGMLEYEPAKRFSIRQIRQHSWFRKKHPPAEAPVPIPPSPDTKDRWRSMTVVPYLEDLHGADEDEDLFDIEDDIIYTQDFTVPGQVPEEEASHNGQRRGLPKAVCMNGTEAAQLSTKSRAEGRAPNPARKACSASSKIRRLSACKQQ [V3P], the STK11 functional score turned out to be 1.69 ± 0.37.
The figure for MEAVDPQQLGMFTEGELMSVGMDTFIHRIDSTEVIYQPRRKRAKLIGKYLMGDLLGEGSYGKVKEVLDSETLCRRAVKILKKKKLRRIPNGEANVKKEIQLLRRLRHKNVIQLVDVLYNEEKQKMYMVMEYCVCGMQEMLDSVPEKRFPVCQAHGYFCQLIDGLEYLHSQGIVHKDIKPGNLLLTTGGTLKISDLGVAEALHPFAADDTCRTSQGSPAFQPPEIANGLDTFSGFKVDIWSAGVTLYNITTGLYPFEGDNIYKLFENIGKGSYAIPGDCGPPLSDLLKGMLEYEPAKRFSIRQIRQHSWFRKKHPPAEAPVPIPPSPDTKDRWRSMTVVPYLEDLHGADEDEDLFDIEDDIIYTQDFTVPGQVPEEEASHNGQRRGLPKAVCMNGTEAAQLSTKSRAEGRAPNPARKACSASSKIRRLSACKQQ [V3A] is 1.46 ± 0.16; for MEIVDPQQLGMFTEGELMSVGMDTFIHRIDSTEVIYQPRRKRAKLIGKYLMGDLLGEGSYGKVKEVLDSETLCRRAVKILKKKKLRRIPNGEANVKKEIQLLRRLRHKNVIQLVDVLYNEEKQKMYMVMEYCVCGMQEMLDSVPEKRFPVCQAHGYFCQLIDGLEYLHSQGIVHKDIKPGNLLLTTGGTLKISDLGVAEALHPFAADDTCRTSQGSPAFQPPEIANGLDTFSGFKVDIWSAGVTLYNITTGLYPFEGDNIYKLFENIGKGSYAIPGDCGPPLSDLLKGMLEYEPAKRFSIRQIRQHSWFRKKHPPAEAPVPIPPSPDTKDRWRSMTVVPYLEDLHGADEDEDLFDIEDDIIYTQDFTVPGQVPEEEASHNGQRRGLPKAVCMNGTEAAQLSTKSRAEGRAPNPARKACSASSKIRRLSACKQQ [V3I] it is 1.06 ± 0.43; for MEGVDPQQLGMFTEGELMSVGMDTFIHRIDSTEVIYQPRRKRAKLIGKYLMGDLLGEGSYGKVKEVLDSETLCRRAVKILKKKKLRRIPNGEANVKKEIQLLRRLRHKNVIQLVDVLYNEEKQKMYMVMEYCVCGMQEMLDSVPEKRFPVCQAHGYFCQLIDGLEYLHSQGIVHKDIKPGNLLLTTGGTLKISDLGVAEALHPFAADDTCRTSQGSPAFQPPEIANGLDTFSGFKVDIWSAGVTLYNITTGLYPFEGDNIYKLFENIGKGSYAIPGDCGPPLSDLLKGMLEYEPAKRFSIRQIRQHSWFRKKHPPAEAPVPIPPSPDTKDRWRSMTVVPYLEDLHGADEDEDLFDIEDDIIYTQDFTVPGQVPEEEASHNGQRRGLPKAVCMNGTEAAQLSTKSRAEGRAPNPARKACSASSKIRRLSACKQQ [V3G] it is 1.47 ± 0.26.
Regarding MEFVDPQQLGMFTEGELMSVGMDTFIHRIDSTEVIYQPRRKRAKLIGKYLMGDLLGEGSYGKVKEVLDSETLCRRAVKILKKKKLRRIPNGEANVKKEIQLLRRLRHKNVIQLVDVLYNEEKQKMYMVMEYCVCGMQEMLDSVPEKRFPVCQAHGYFCQLIDGLEYLHSQGIVHKDIKPGNLLLTTGGTLKISDLGVAEALHPFAADDTCRTSQGSPAFQPPEIANGLDTFSGFKVDIWSAGVTLYNITTGLYPFEGDNIYKLFENIGKGSYAIPGDCGPPLSDLLKGMLEYEPAKRFSIRQIRQHSWFRKKHPPAEAPVPIPPSPDTKDRWRSMTVVPYLEDLHGADEDEDLFDIEDDIIYTQDFTVPGQVPEEEASHNGQRRGLPKAVCMNGTEAAQLSTKSRAEGRAPNPARKACSASSKIRRLSACKQQ [V3F], the STK11 functional score is 0.991 ± 0.32.
As for MELVDPQQLGMFTEGELMSVGMDTFIHRIDSTEVIYQPRRKRAKLIGKYLMGDLLGEGSYGKVKEVLDSETLCRRAVKILKKKKLRRIPNGEANVKKEIQLLRRLRHKNVIQLVDVLYNEEKQKMYMVMEYCVCGMQEMLDSVPEKRFPVCQAHGYFCQLIDGLEYLHSQGIVHKDIKPGNLLLTTGGTLKISDLGVAEALHPFAADDTCRTSQGSPAFQPPEIANGLDTFSGFKVDIWSAGVTLYNITTGLYPFEGDNIYKLFENIGKGSYAIPGDCGPPLSDLLKGMLEYEPAKRFSIRQIRQHSWFRKKHPPAEAPVPIPPSPDTKDRWRSMTVVPYLEDLHGADEDEDLFDIEDDIIYTQDFTVPGQVPEEEASHNGQRRGLPKAVCMNGTEAAQLSTKSRAEGRAPNPARKACSASSKIRRLSACKQQ [V3L], the STK11 functional score was found to be 0.558 ± 0.13.
MEMVDPQQLGMFTEGELMSVGMDTFIHRIDSTEVIYQPRRKRAKLIGKYLMGDLLGEGSYGKVKEVLDSETLCRRAVKILKKKKLRRIPNGEANVKKEIQLLRRLRHKNVIQLVDVLYNEEKQKMYMVMEYCVCGMQEMLDSVPEKRFPVCQAHGYFCQLIDGLEYLHSQGIVHKDIKPGNLLLTTGGTLKISDLGVAEALHPFAADDTCRTSQGSPAFQPPEIANGLDTFSGFKVDIWSAGVTLYNITTGLYPFEGDNIYKLFENIGKGSYAIPGDCGPPLSDLLKGMLEYEPAKRFSIRQIRQHSWFRKKHPPAEAPVPIPPSPDTKDRWRSMTVVPYLEDLHGADEDEDLFDIEDDIIYTQDFTVPGQVPEEEASHNGQRRGLPKAVCMNGTEAAQLSTKSRAEGRAPNPARKACSASSKIRRLSACKQQ [V3M]: the STK11 functional score was 0.72 ± 0.44.
The figure for MESVDPQQLGMFTEGELMSVGMDTFIHRIDSTEVIYQPRRKRAKLIGKYLMGDLLGEGSYGKVKEVLDSETLCRRAVKILKKKKLRRIPNGEANVKKEIQLLRRLRHKNVIQLVDVLYNEEKQKMYMVMEYCVCGMQEMLDSVPEKRFPVCQAHGYFCQLIDGLEYLHSQGIVHKDIKPGNLLLTTGGTLKISDLGVAEALHPFAADDTCRTSQGSPAFQPPEIANGLDTFSGFKVDIWSAGVTLYNITTGLYPFEGDNIYKLFENIGKGSYAIPGDCGPPLSDLLKGMLEYEPAKRFSIRQIRQHSWFRKKHPPAEAPVPIPPSPDTKDRWRSMTVVPYLEDLHGADEDEDLFDIEDDIIYTQDFTVPGQVPEEEASHNGQRRGLPKAVCMNGTEAAQLSTKSRAEGRAPNPARKACSASSKIRRLSACKQQ [V3S] is 1.35 ± 0.17; for MEDVDPQQLGMFTEGELMSVGMDTFIHRIDSTEVIYQPRRKRAKLIGKYLMGDLLGEGSYGKVKEVLDSETLCRRAVKILKKKKLRRIPNGEANVKKEIQLLRRLRHKNVIQLVDVLYNEEKQKMYMVMEYCVCGMQEMLDSVPEKRFPVCQAHGYFCQLIDGLEYLHSQGIVHKDIKPGNLLLTTGGTLKISDLGVAEALHPFAADDTCRTSQGSPAFQPPEIANGLDTFSGFKVDIWSAGVTLYNITTGLYPFEGDNIYKLFENIGKGSYAIPGDCGPPLSDLLKGMLEYEPAKRFSIRQIRQHSWFRKKHPPAEAPVPIPPSPDTKDRWRSMTVVPYLEDLHGADEDEDLFDIEDDIIYTQDFTVPGQVPEEEASHNGQRRGLPKAVCMNGTEAAQLSTKSRAEGRAPNPARKACSASSKIRRLSACKQQ [V3D] it is -0.174 ± 0.11; for MEWVDPQQLGMFTEGELMSVGMDTFIHRIDSTEVIYQPRRKRAKLIGKYLMGDLLGEGSYGKVKEVLDSETLCRRAVKILKKKKLRRIPNGEANVKKEIQLLRRLRHKNVIQLVDVLYNEEKQKMYMVMEYCVCGMQEMLDSVPEKRFPVCQAHGYFCQLIDGLEYLHSQGIVHKDIKPGNLLLTTGGTLKISDLGVAEALHPFAADDTCRTSQGSPAFQPPEIANGLDTFSGFKVDIWSAGVTLYNITTGLYPFEGDNIYKLFENIGKGSYAIPGDCGPPLSDLLKGMLEYEPAKRFSIRQIRQHSWFRKKHPPAEAPVPIPPSPDTKDRWRSMTVVPYLEDLHGADEDEDLFDIEDDIIYTQDFTVPGQVPEEEASHNGQRRGLPKAVCMNGTEAAQLSTKSRAEGRAPNPARKACSASSKIRRLSACKQQ [V3W] it is 0.953 ± 0.5.
The result for MQVVDPQQLGMFTEGELMSVGMDTFIHRIDSTEVIYQPRRKRAKLIGKYLMGDLLGEGSYGKVKEVLDSETLCRRAVKILKKKKLRRIPNGEANVKKEIQLLRRLRHKNVIQLVDVLYNEEKQKMYMVMEYCVCGMQEMLDSVPEKRFPVCQAHGYFCQLIDGLEYLHSQGIVHKDIKPGNLLLTTGGTLKISDLGVAEALHPFAADDTCRTSQGSPAFQPPEIANGLDTFSGFKVDIWSAGVTLYNITTGLYPFEGDNIYKLFENIGKGSYAIPGDCGPPLSDLLKGMLEYEPAKRFSIRQIRQHSWFRKKHPPAEAPVPIPPSPDTKDRWRSMTVVPYLEDLHGADEDEDLFDIEDDIIYTQDFTVPGQVPEEEASHNGQRRGLPKAVCMNGTEAAQLSTKSRAEGRAPNPARKACSASSKIRRLSACKQQ [E2Q] reads 1.21 ± 0.54; that for MKVVDPQQLGMFTEGELMSVGMDTFIHRIDSTEVIYQPRRKRAKLIGKYLMGDLLGEGSYGKVKEVLDSETLCRRAVKILKKKKLRRIPNGEANVKKEIQLLRRLRHKNVIQLVDVLYNEEKQKMYMVMEYCVCGMQEMLDSVPEKRFPVCQAHGYFCQLIDGLEYLHSQGIVHKDIKPGNLLLTTGGTLKISDLGVAEALHPFAADDTCRTSQGSPAFQPPEIANGLDTFSGFKVDIWSAGVTLYNITTGLYPFEGDNIYKLFENIGKGSYAIPGDCGPPLSDLLKGMLEYEPAKRFSIRQIRQHSWFRKKHPPAEAPVPIPPSPDTKDRWRSMTVVPYLEDLHGADEDEDLFDIEDDIIYTQDFTVPGQVPEEEASHNGQRRGLPKAVCMNGTEAAQLSTKSRAEGRAPNPARKACSASSKIRRLSACKQQ [E2K], 1.16 ± 0.78.
The result for MVVVDPQQLGMFTEGELMSVGMDTFIHRIDSTEVIYQPRRKRAKLIGKYLMGDLLGEGSYGKVKEVLDSETLCRRAVKILKKKKLRRIPNGEANVKKEIQLLRRLRHKNVIQLVDVLYNEEKQKMYMVMEYCVCGMQEMLDSVPEKRFPVCQAHGYFCQLIDGLEYLHSQGIVHKDIKPGNLLLTTGGTLKISDLGVAEALHPFAADDTCRTSQGSPAFQPPEIANGLDTFSGFKVDIWSAGVTLYNITTGLYPFEGDNIYKLFENIGKGSYAIPGDCGPPLSDLLKGMLEYEPAKRFSIRQIRQHSWFRKKHPPAEAPVPIPPSPDTKDRWRSMTVVPYLEDLHGADEDEDLFDIEDDIIYTQDFTVPGQVPEEEASHNGQRRGLPKAVCMNGTEAAQLSTKSRAEGRAPNPARKACSASSKIRRLSACKQQ [E2V] reads 1.36 ± 0.83.
